Source: patent publication US20250155441A1 (ROCHE DIAGNOSTICS OPERATIONS, published 2025)
The star is where a group is joined. G0F = fucosylated biantennary N-glycan, CC(=O)N[C@@H]1[C@@H](O)[C@H](O[C@@H]2O[C@H](CO)[C@@H](O[C@@H]3O[C@H](CO[C@H]4O[C@H](CO)[C@@H](O)[C@H](O)[C@@H]4O[C@@H]4O[C@H](CO)[C@@H](O)[C@H](O)[C@H]4NC(C)=O)[C@@H](O)[C@H](O[C@H]4O[C@H](CO)[C@@H](O)[C@H](O)[C@@H]4O[C@@H]4O[C@H](CO)[C@@H](O)[C@H](O)[C@H]4NC(C)=O)[C@@H]3O)[C@H](O)[C@H]2NC(C)=O)[C@@H](CO[C@@H]2O[C@@H](C)[C@@H](O)[C@@H](O)[C@@H]2O)O[C@H]1*

B1: AFP(243-261)[Ac-243; Asn(G0F)251]amid (peptide)
peptide: Ac-LSQKFTKVN(G0F)FTEIQKLVLD-NH2
notes: also called BMO 35.000315
B2: mAb<AFP-L3>rRb-19B12-IgG (antibody, V domains shown)
VH: QSVEESGGRLVAPGTPLTLTCTVSGIDLSTYGMGWVRQAPGKGLEWIGIIGDNGSTYYANWAKGRFTISKTSTTVDLKMTSLTTEDTATYFCARDRDPSSSGYYFKMWGPGTLVTVSL
VL: ALVMTQTPSSVSAAVGGTVTINCQASQSISSYLAWYQQKPGQPPKLLIFGASNLESGVPSRFKGSGSGTEFTLTISDLECDDAATYYCQTAFYIFSSDNAFGGGTEVVVK
notes: Recombinant rabbit IgG (B-cell supernatant in the Hit-ELISA, expressed in HEK293 afterwards); also called antibody 19B12; clone 19B12
B3: mAb<AFP-L3>rRb-3C5-IgG (antibody, V domains shown)
VH: QSVEESGGRLVAPGTPLTLTCTVSGIDLSTYGMGWVRQAPGKGLEYIGIIDSGSTYYANWAKGRFTISKTSTTVDLKMTSLTTEDTATYFCARDRDPSSSGYYFKMWGPGTLVTVSL
VL: ALVMTQTPSSVSAAVGGTVTINCQASQSIGSYLAWYQQKPGQPPRLLIYGASNLESGVPSRFKGSGSGTEFTLTISDLECDDAATYYCQTAFYIFSSDNAFGGGTEVVVK
notes: Recombinant rabbit IgG; also called antibody 3C5; clone 3C5
B4: AFP(248-256)Ac-248]amid (peptide)
peptide: Ac-TKVNFTEIQ-NH2
notes: also called BMO 35.000373

Tests used:
mAb<AFP-L3>rRb-19B12-IgG [1] = target: B2; assay: SPR affinity in solution (Biacore, CAP chip): 10 nM antibody equilibrated with the non-biotinylated peptide at varied concentration; free antibody measured by its binding to captured AFP(243-261)-G0F-Bi; n=2
Protocol: (§1) The dissociation equilibrium constant K) was determined via the Affinity in Solution method (AiS).
(§2) With increasing peptide concentration as a competitor, the ‘free’ antibody in solution decreases. The determined free antibody concentrations for the competition experiment were plotted versus the peptide competitor concentration. The regeneration was performed using a Guanidinium/NaOH solution, as supplied by Cytiva. Two independent series were analyzed for each interaction. The Affinity in Solution model from Biacore Evaluation software was used to evaluate the data.

mAb<AFP-L3>rRb-3C5-IgG [2] = target: B3; assay: SPR affinity in solution (Biacore, CAP chip): 10 nM antibody equilibrated with the non-biotinylated peptide at varied concentration; free antibody measured by its binding to captured AFP(243-261)-G0F-Bi; n=2 [continued), upper plot]
Protocol: as §1, §2

[3] = target: T1, AFP(243-261)[Asn(Fuc-GlcNAc)Bi-PEG] (human, not fully specified; Fuc-GlcNAc disaccharide on Asn corresponding to Asn-251; C-terminal E(biotinyl-PEG)-NH2); assay: SPR; ratio of KD against the KD for AFP(243-261)-G0F-Bi
T1 peptide: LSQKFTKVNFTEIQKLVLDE

[4] = target: T1, AFP(243-261)[Asn(Fuc-GlcNAc)Bi-PEG]; assay: SPR Biacore T200, 37 C; molar ratio (binding stoichiometry)
Protocol: (§3) Detailed kinetic investigations were performed using a BIAcore™ T200 instrument from GE Healthcare at 37° C. The 5 rabbit mAb<AFP-L3>L9B12, 3C5, 3D2, 3A3 and 6B6, identified via the kinetic screening, were kinetically characterized for binding AFP-L3 peptides [0656] […] Asn(G0F)-Bi [0658]
(§4) The rabbit antibody capture system was immobilized on flow cells 1-4 as described with 700 to 800 RU. Flow cell 1 served as reference, flow cells 2, 3 and 4 were used for interaction measurements. 150 nM antibodies 1-5 were injected at 10 μL/min for 30 seconds. The Capture Levels (CL) in resonance units RU were monitored. Peptide analyte concentration series from 3.3-270 nM were injected at 60 μl/min. The association phase was monitored for 3 minutes, the dissociation phase was monitored for 10 minutes. The regeneration was performed by an injection of 10 mM Glycine pH 2.0 at 20 μL/min for 30 seconds, followed by 2 injections of 10 mM Glycine pH 2.25 for 60 seconds. The kinetic rate constants and the dissociation equilibrium constants KD were determined using a Langmuir 1:1 fitting model according to the BIAcore™ T200 Evaluation SW 3.2. Secondly, the Langmuir 1:1 fitting Scrubber-SW V2.0c was applied.

[5] = target: T2, AFP(243-261)[Acetyl-243; Asn(G0F)251; Bi-PEG] (human, N-terminal acetylation; G0F (fucosylated biantennary N-glycan) on Asn corresponding to Asn-251; C-terminal E(biotinyl-PEG)-NH2); assay: as above
T2 construct: Synthetic glycopeptide
T2 peptide: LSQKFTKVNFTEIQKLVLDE
Protocol: as §3, §4

AFP(248-256)Ac-248]amid [6] = target: B4; assay: affinity in solution; ratio of KD against the KD for AFP(243-261)-G0F
Protocol: as §1, §2

[7] = target: T2, AFP(243-261)[Acetyl-243; Asn(G0F)251; …; assay: SPR; ratio of KD against the KD for AFP(243-261)-G0F-Bi (reference itself)
Protocol: as §1, §2

[8] = target: T1, AFP(243-261)[Asn(Fuc-GlcNAc)Bi-PEG]; assay: SPR Biacore T200, 37 C, antibody captured on C1 chip, peptide as analyte, Langmuir 1:1
Protocol: as §3, §4

[9] = target: T2, AFP(243-261)[Acetyl-243; Asn(G0F)251; …; assay: as above
Protocol: as §3, §4

[10] = target: T3, AFP(243-261)[Ac-243; Asn(G2)251; Bi-PEG] (human, N-terminal acetylation; G2 (non-fucosylated biantennary N-glycan) on Asn corresponding to Asn-251; C-terminal E(biotinyl-PEG)-NH2); assay: SPR; ratio of KD against the KD for AFP(243-261)-G0F-Bi; SPR; ratio of KD to the KD for G0F
T3 peptide: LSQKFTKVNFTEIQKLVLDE
Protocol: as §3, §4

AFP(248-256)Ac-248]amid [11] = target: B4; assay: SPR affinity in solution: 10 nM antibody with 200 µM-0.1 nM free peptide, free antibody read on AFP(243-261)-G0F-Bi CAP chip, n=2
Protocol: as §1, §2

[12] = target: B1; assay: SPR affinity in solution: 10 nM antibody with 120 nM-0.01 nM free peptide, free antibody read on AFP(243-261)-G0F-Bi CAP chip, n=2
Protocol: as §1, §2

[13] = target: T3, AFP(243-261)[Ac-243; Asn(G2)251; Bi-PEG]; assay: SPR Biacore T200, 37 C; simulation for 7.3 µM-10 nM extrapolated from measured data; SPR simulation for 7.3 µM-10 nM, extrapolated lower bound
[14] = target: T3, AFP(243-261)[Ac-243; Asn(G2)251; Bi-PEG]; assay: SPR Biacore T200, 37 C, weak binding (cell shifted to the kd column); SPR, weak binding; KD only, no rate constants
[15] = target: T2, AFP(243-261)[Acetyl-243; Asn(G0F)251; …; assay: SPR Biacore T200, 37 C, antibody captured on C1 chip, peptide as analyte, Langmuir 1:1; apparent value (complex binding behavior)
Protocol: as §3, §4
By visual inspection, the kinetic signature for antibody 3C5 is close to the antibody saturation for the highest shown concentration 90 nM.

mAb<AFP-L3>rRb-3C5-IgG [16] = target: B3; assay: SPR affinity in solution (Biacore, CAP chip): 10 nM antibody equilibrated with the non-biotinylated, non-glycosylated peptide at varied concentration; free antibody measured by its binding to captured AFP(243-261)-G0F-Bi; n=2 [continued]
Protocol: as §1, §2

mAb<AFP-L3>rRb-19B12-IgG [17] = target: B2; assay: SPR affinity in solution (Biacore, CAP chip): 10 nM antibody equilibrated with the non-biotinylated, non-glycosylated peptide at varied concentration; free antibody measured by its binding to captured AFP(243-261)-G0F-Bi; n=2 [continued), lower plot]
Protocol: as §1, §2

Binder | Delta KD [3] [fold] | MR [4] | MR [5] | Delta KD (AFP(248-256)Ac-248]amid [6]) [fold] | Delta KD [7] [fold] | Kd [8] [nM] | koff [8] [s⁻¹] | kon [8] [M⁻¹ s⁻¹] | t/2 diss [8] [min] | Delta KD [10] [fold] | Kd (AFP(248-256)Ac-248]amid [11]) [nM] | Kd [12] [nM] | further results
B1 |  |  |  |  |  |  |  |  |  |  |  |  | IC50 (read off the curve) (mAb<AFP-L3>rRb-19B12-IgG [1]): ~6 nM; IC50 (read off the curve) (mAb<AFP-L3>rRb-3C5-IgG [2]): ~5 nM
B2 | > 7 | 1.3 | 1.4 | > 5000 | 1 | 18 | 0.0047 | 270000 | 2.5 | > 245 | 5700 | 0.9 | Kd [9]: 2.5 nM; koff [9]: 0.0015 s⁻¹; kon [9]: 600000 M⁻¹ s⁻¹; t/2 diss [9]: 8 min; Kd [13]: > 620 nM
B3 | > 11 | 1.5 | 1.6 | > 5000 | 1 | 35 | 0.016 | 450000 | 0.7 | > 180 | 12600 | 0.4 | Kd [14]: 560 nM; Kd [15]: 3.1 nM; koff [15]: 0.0032 s⁻¹; kon [15]: 1e+06 M⁻¹ s⁻¹
B4 |  |  |  |  |  |  |  |  |  |  |  |  | binding result (mAb<AFP-L3>rRb-3C5-IgG [16]): binds; binding result (mAb<AFP-L3>rRb-19B12-IgG [17]): binds
